Test: yeast display, Sf9 membrane polyspecificity reagent, FACS + sequencing; frameworks hold sequencing errors
Method in brief: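 In a synthetic yeast display library (Saccharomyces cerevisiae BJ5465), nanobody expression was induced with galactose for 36–48 hours. FACS gates were set low and high (top ~1%) using anti-HA fluorescence for expression and streptavidin fluorescence for binding of the Sf9 membrane reagent. Each polyreactivity label is drawn from the gate of origin.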

Row | Sequence | polyreactivity (PSR sort gate)
1 | QVQLVESGGGLVQAGGSLRLSCAASGRTFGNNAMGWYRQAPGKERELVAAITGSGGSTYYADSVKGRFTISRDNAKNTVYLQMNSLKPEDTAVYYCAAVVYGAVRGSRYPYYYWGQGTQVTVSS | high polyreactivity
2 | QVQLVESGGGLVQAGGSLRLSCAASGRIFISYTMGWDRQAPGKERELVAGIDSSGTSTYYADSVKGRFTISRDNAKNTVYLQMNSLKPEDTAVYYCNVDGNWKDTSTELDYWGQGTQVTVSS | low polyreactivity
3 | QVQLVESGGGLVQAGGSLRLSCAASGFTFARYAMGWYRQAPGNERELVAAITRRGGSTYYADSVKGRFTISRDNAKDTVYLQMNSLKPEDTAVYYCAADSSSGSDYWGQGTQVTVSS | high polyreactivity
4 | QVQLVESGGGLDQAGGSLRLSCAASGIIFVKYTMGWYIQAPGKERELDAAISRSGGSTYYADSVKGRFTISRDNAKYTVYLQMNSLKPEDTAVYYCNAGARKVYPGPMDYWGQGTQVTVSS | high polyreactivity
5 | QVQLVETGGGLVQAGGTLRLSCAASGRTFSRNAMGCDRPAPGKERELVAAITSGGGTYYADSVKGRFTISRDNAKNTVYLQMNSLKPEDTAVYYCNKKTSAGRVDYWGQGTQVTVSS | high polyreactivity
6 | QVQLVESGGGLVQAGGSLSLSCAASGSTFAFNAMGWYRQAPGKERELVAAIYSDGSTDYADSVKGRFTISRDNAKNTVYLQMNSLKPEDTAVYYCAADWGWRYVLPVGWFRYGYWGQGTQVTVSS | low polyreactivity
7 | QVQLVESGGGLVQAGGSLRLSSAASGRTFYSNAMGWSRQAPGKERELVAAITSTDDSTYYADSVKGRFTISRDNAKNTVYLQMNSLKPEDTAVYYCNTDGLIAIRCVWWVEYDYWGQGTQVTVSS | low polyreactivity
8 | QVHLVESVGGLVQAGGSLRLSCAASGIIFNDYAMGWYRQAPGKERELVATISWSGGSTYADSVKGRFTISRDNAKNTVYLQMNSLNPEDTAVYYCNADLGSSYDWGQGTQGTVSS | low polyreactivity
9 | QVQLVESGGGLVQAGGSLRLSCAATGRTFYPYVMGWYRQAAGKERDLVASITDSGGNTYYADSVKGRFTISRDHAKNTVYLQMNSLKPEDTAVYYCNASFYYPSRRGTFQYNYWGHGTQVTVSS | low polyreactivity
10 | QVQHVESGGGLVQAGGSLRLSCAASGSTFGRYAMGWYRQAPGKERELVARISWGGGSTYYADSVKGRFTISRDNAKNTVYLQMNSLKPEDSAVYYCATRVYRSAVSYDYWGQGTQVTVSS | high polyreactivity
11 | QVQIVESGGGLVQAGGSLRLSCAASGSTSTLNAMGWYRQAPGTERELVAAISRSGTSTYFADSVKGRFTISRDNAKNTVYLQMNSLKPEDTADYYCAAYSYGPPYYYWGQGTQVTVSS | high polyreactivity
12 | QVQLVESGGGLVQSGGSLRLSCAASGITLRRNAMVWYRQAPGKERELVASISSRGGTTYYADSVKGRFTISRDNAKNTDYLQMISQKPEDTAVYYCAAYRVQRLANTGYDYWGQGTQVTVSS | high polyreactivity
13 | QVQLVESGVGLVQAGGSLRLSCAASGFTFMKNAMGWYRQAPGKERELVAAITSSGGRPYYADSVKGRFTISRDIAKNTVYLQMNSLKPEDTAVYYCNKGPLPGYDYWGQGTQVTVSS | high polyreactivity
14 | QVQLVESGGGLVQAGGSLRLSCAASGRTFAYNDMGWYRQAPGKERELVAAITSVASTYYADSVKGRFTISRDNAKNTVYLQMNSLKPEDTAVYYCAADTRSLRPRYQLYGEDSWGQGTQVTVSS | low polyreactivity
15 | QVQLVESGGGLVQAGGSLRLICAASGSIFRYYVKGWYRQAPGKERELVASISYSVGRTYYADSVKGRFTISRDYAKNTVYLQMNSLKPEDTAVYYCAADRYWPYYSAYYTSYRMDYWGQGTQVTVSS | high polyreactivity
16 | QEQLQESGGGLVQAGGSLRLSCAASGSIFHLHIMCRYRQAPGKERESVAAISYGTSTYYADSVKGRFTICRDNAKNTVYLQMNSPKPDDTAVYYCAALFLVSKHHHYWGEGTQVTVSS | low polyreactivity
17 | QVQLVEAGGGLVQAGGSLRLSCAASGSIFKSYAMGRYRQAPGKEREFVASITKSGGTTYYADSVKGRFTISRDHAKNTVYLQMNSLKPEDTAVYYCAADWYRSSWTYNYLGQGTQVTVSS | low polyreactivity
18 | QVQLVESGGGLVQAGGRLRLSCAASGFIIARNAMGWYRQAPGKERELVAASSASGGRTYYADSVKGRFTISRDNAKNTVYLQMNSLKPEDTAVYYCAARRDGRSGSFNYWGQGTQVTVSS | high polyreactivity
19 | QVQLVESGGGLVQAGGSLRLSCAASGITFRGYAMGWYRQAPGKERELVAAITWSGGSTYYADSVKGRFTISRDIAKNTVYLQMKSLKPEDTAVYYCAARGRRSFEYWGQGTHVTVSS | high polyreactivity
20 | QVQLVESGGGLVQAGGSLRLSCAASGSTFSINAMGWYRPAPGKERELVAAITWRGTRTYYADSVKGRFTISRDNAKNTVYLQMNSLKPEDTAVYYCAATGSGQSSYYYWGQGTQVTVSS | high polyreactivity
21 | QVQLVESGGGLVQAGGSLRLSCAASGRTFSVYAKGWYRQAPGKERELVAGITSGGSTNYADSVKGRFTISRDNAKNTVYLQMNSLKPEDTAVYYCAAENVYAGFGFVSIGDYWGHGTQVTVSS | low polyreactivity
22 | QDQLVESVGGLDQAGGSLPLSCDASGSIFPDYAMGWYRPAPGKERELVAAITSSGSTNNADSVKGLFTISRDNAKNTVYLQMNSLNPEDTAVYYCNAVVVQEESGYTRYDYWGQGTQVTVSS | low polyreactivity

Row | Sequence | polyreactivity (PSR sort gate)
23 | QVQLVESGGGLVQAGGRLRLSCAASGSTLDPYAMGLYRQAPGKERELVAAITISGGTTYNADSVKGRFTISRDNAKNTVYLQMNSMKPEDTAVYYCAAEGTYVTLGYYNLDVRYDYWGQGTQVTVSS | low polyreactivity
24 | QVQLVESGGGLVQAGGSLRLSCAASGSIFEGNGMGWYRQAPGKERELVAAITFRSGSTYYADSVKGRFTISRDNAKNTVYLQMNSLKPEDTAVYYCAADEYYEVSAYDYWGQGTQVTVSS | low polyreactivity
25 | QFQLVESGGGLVQAGGSLRLSCAASGIIFAQYTMGWYRQAPGKDRELGAAINRNGGSTYYADSVKGRFTISRDNAKNTVYLQMNSLKPEDTAVYYCIADALGFRYDYWGQGTQVTVSS | low polyreactivity
26 | QVQLVESGGGLVQAGGSLRLSCAASGITFDRYAMGWYRQAPGKERELVAAITTRGTRTYADSVKGRFTISRDNAKNTVYLQMNSLKPEDTAVYYCAATSYRLTYAWPYYYWGQGTQVTVSS | high polyreactivity
27 | QVQLVESGGGLVQAGGSLRLSCAASGLIFDRSAMGWYRPAPGKERELDAASRWTGASSTYYADSVKGRFTISRDNAKNTVYLQMNSLKPEDTAVYYCNADSPYSFATGPYVLDSDYWGQGTQVTVSS | low polyreactivity
28 | QVQLVESVGGLVQAGGSLRLICAASGSIFYPNAMGWYRQAPGKERELVAAISYSGTSTNYADSVKGRFTISRDNAKNTVYLQMNSLKPEDTAVYYCAARGFPHRRHSLYDYWGQGTQVTVSS | low polyreactivity
29 | QVQLVESGGGLVQAGGSLRLSCAASGSIFYFYTMGWYRQAPGKERELVASITYSGGRTYYADSVKGRFTISRDNAKNTVYLQMNSLKPEDTAVYYCAVRGYRRYWGQGTQVTVSS | high polyreactivity
30 | QVQLVESGGGLVQAGGSLRLSCAASGRTFYPYAMGWSRQAPGKERELVAAISWNGGRTYYADSVKGRFTISRDNAKNTVYLQMNSLKPEDTAVYYCAADTAYYDFDYWGQGTQVTVSS | low polyreactivity
31 | QVQLVESGGGLVQAGVSLRLSCAASGRTFRHNVMGRYRQAPGKERELVAAISYSGGSTHYADSVKGRFTISRDNAKNTVYLQMNSQKPEDTAVYYCNRYSYDSHFLYPFRGHDYWGQGTQVTVSS | low polyreactivity
32 | QVQLAESGGGLVQAGGSLRLSCAASGRTFNLYAMGWYRQAPGKERELVASISSGGSTYYADSVKGRFTISRDNAKNTVYLQMNSLIPEDTAVYYCAARLAYGPRPMPSYEYYYWGQGTQVTVSS | low polyreactivity
33 | QVQLVESGGGLVQAGGSLRLSCAASGRIFKTYAMGWYRQAPGKERELVAAITASGGRTYYADSVKGRFTISRDNAKNTVYLQMNSLTPEDSAVYYCAAPLLRDLRSPYSYNYWGQGTQVTVSS | low polyreactivity
34 | QVQLVESGGGLVQAGGSLRLSCAASGSIFEGYAMGWYRQAPGKERELVARITSDDDSTYYADSVKGRFTISRDNAKNTVYLQMNSLKPEDTAVYYCNADYYCTSLAMDSWGQGTQVTVSS | low polyreactivity
35 | QVQLEESGGGLVQAGGSLRLCCAASGRTFYYAMGWYRQATGKDRYADSVKGRFTISRDNAKNTVYLQMNSLKPDDTSVYYCAAKVTEPPSLDDSDYWGQGTQVTVSS | low polyreactivity
36 | QVHLVESGGGLVQAGDSLRLSCASSGIIFYDYAMGWYRPAPGKERELVAAITSSGGSTYYADSVKGRFTISRDNAKNTVYLQMNSLIPEDTAVYYCAAATRGSGRRYDYLGQGTQVTVSS | high polyreactivity
37 | QVQLEESGGGLVQAGGSLRLSCAASGYTVVLYAMGCDIQAPGKERELVAVISWSGGSTYYADSVKGRFTISRDNAKNTVYLQMNSLKPEDTAVYYCAVSRYYNDYWGQGTQVTVSS | low polyreactivity
38 | QVQLVESGGGLVQAGGSLRLSCAASGRIFTKYAMGWYRQAPGKERELVAAISQIGGSTYYADSVKGRFTISRDKAKNTVYLQMNSLKPEDTAVYYCAARWREASYRYENWGQGTQVTVSS | high polyreactivity
39 | QDQLVESGGGLVQAGGSLRLSCAASGFTFGENSMGWYRQAPGKERELVAANRYSGGSTYYADSVKGRFTISRDNAKNTVYLQMNSLKPEDTAVYYCNADTYALGPAVIPGDEYWGQGTQVTVSS | low polyreactivity
40 | QVQLVESGGGLVQAGGSLRLSCAASGRIFQYNAMGWYRQAPGKERALVAAIRRGGGSTYYADSVKGRFTISRDNAKNTVYLQMNSLKPEDTAVYYCAARRKRVSFYPEYDYWGQGTQVTVSS | low polyreactivity
41 | QVQLVESGGGLVQAGGSLRLSCAASGSIFDIYAMGWYREAPGKERELVAAISGRGGSTYADSVKGRFTISRDNAKNTVYLQMNSLKPEDTAVYYCATERHRFGGLYYWGQGTQVTVSS | low polyreactivity
42 | QVQLVESGGGLVQAGGSLRLSCAASGFTFSKYAMLWYRQAPGKEREFVAAISSRGGRTYYADSVKGRFTISRDNAKNTVYLQMNSLKPEDTAVYYCAVDVHLVTEYDYWGQGTQVTVSS | high polyreactivity
43 | QVQLVESGGGLVQAGGSLRLSCAASGRTFYYNAMGWYRQAPGKERELVAAITSAGSTNYADSVKGRFTISRDNAKNTVYLQMNSLKPEDTAVYYCAARYFYRSAWGTFVKNDSWGQGTQVTVSS | high polyreactivity
